Results from patent US11230581B2, “Peptides and combination of peptides for use in immunotherapy against ovarian cancer and other cancers” (Immatics Biotechnologies GmbH, priority 2015, dated 2022).

Each substance was assayed against HLA-A*02:01 (Homo sapiens, UniProt P04439, D140Y/D185E/D98H/E176V/E277Q/G131W/G231S/I119V/I121R/I166T/I218V/L300P/L318F/N151K/N90K/P208A/P217A/Q86G/Q94H/R138H/R169H/T345S) (assay: MHC binding assay (UV-ligand exchange, β2m ELISA, peptide exchange yield)). Conditions: binding of HLA-class I restricted peptides to HLA-A*02:01, UV-ligand exchange.
Excerpt: Candidate peptides for T cell based therapies according to the present invention were further tested for their MHC binding capacity (affinity). The individual peptide-MHC complexes were produced by UV-ligand exchange, where a UV-sensitive peptide is cleaved upon UV-irradiation, and exchanged with the peptide of interest as analyzed. Only peptide candidates that can effectively bind and stabilize the peptide-receptive MHC molecules prevent dissociation of the MHC complexes. To determine the yield of the exchange reaction, an ELISA was performed based on the detection of the light chain (β2m) of stabilized MHC complexes. The assay was performed as generally described in Rodenko et al. (Rodenko et al., 2006).
96 well MAXISorp plates (NUNC) were coated over night with 2 ug/ml streptavidin in PBS at room temperature, washed 4× and blocked for 1h at 37° C. in 2% BSA containing blocking buffer. […] Peptide-MHC monomers of the UV-exchange reaction were diluted 100 fold in blocking buffer. Samples were incubated for 1 h at 37° C., washed four times, incubated with 2 ug/ml HRP conjugated anti-β2m for 1h at 37° C., washed again and detected with TMB solution that is stopped with […]. Absorption was measured at 450 nm. Candidate peptides that show a high exchange yield (preferably higher than 50%, most preferred higher than 75%) are generally preferred for a generation and production of antibodies or fragments thereof, and/or T cell receptors or fragments thereof, as they show sufficient avidity to the MHC molecules and prevent dissociation of the MHC complexes.
In the case of “17 (GLLPGDRLVSV; listed as Homo sapiens) [compound 17]”, the “Peptide exchange (MHC class I binding score, peptide exchange yield)” value (shortened to “Peptide exchange”) is reported as ““+++” (≥50 = +++)”. “437 (SMAPGLVIQAV; listed as Homo sapiens) [compound 437]” was tested, and the “Peptide exchange” value was ““+++” (≥50 = +++)”. For “301 (FLVEDLVDSL; listed as Homo sapiens) [compound 301]”, the “Peptide exchange” value was ““+++” (≥50 = +++)”. For “138 (YQYPRAILSV; listed as Homo sapiens) [compound 138]”, the “Peptide exchange” value was ““+++” (≥50 = +++)”. For “499 (KIFDIDEAEEGV; listed as Homo sapiens) [compound 499]”, the “Peptide exchange” value was ““++” (≥20% = ++)”. In the case of “275 (YLVYILNEL; listed as Homo sapiens) [compound 275]”, the “Peptide exchange” value is reported as ““++” (≥20% = ++)”. With “257 (SIFSAFLSV; listed as Homo sapiens) [compound 257]” the “Peptide exchange” value was ““+++” (≥50 = +++)”. With “365 (YVIDQGETDVYV; listed as Homo sapiens) [compound 365]” the “Peptide exchange” value was ““+++” (≥50 = +++)”. “82 (FLSSVTYNL; listed as Homo sapiens) [compound 82]” was tested, and the “Peptide exchange” value was ““+++” (≥50 = +++)”. “361 (ALYELEGTTV; listed as Homo sapiens) [compound 361]” was tested, and the “Peptide exchange” value was ““+++” (≥50 = +++)”. For “501 (LLDPNVKSIFV; listed as Homo sapiens) [compound 501]”, the “Peptide exchange” value was ““+++” (≥50 = +++)”. “623 (YLVEDIQHI; listed as Homo sapiens) [compound 623]” was tested, and the “Peptide exchange” value was ““+++” (≥50 = +++)”. “314 (ALIAEGIALV; listed as Homo sapiens) [compound 314]” was tested, and the “Peptide exchange” value was ““+++” (≥50 = +++)”. With “241 (SLVEVNPAYSV; listed as Homo sapiens) [compound 241]” the “Peptide exchange” value was ““+++” (≥50 = +++)”. In the case of “207 (GLTSTNAEV; listed as Homo sapiens) [compound 207]”, the “Peptide exchange” value is reported as ““++” (≥20% = ++)”. “430 (HLYSSIEHLTT; listed as Homo sapiens) [compound 430]” was tested, and the “Peptide exchange” value was ““+++” (≥50 = +++)”. “245 (SMIDDLLGV; listed as Homo sapiens) [compound 245]” was tested, and the “Peptide exchange” value was ““+++” (≥50 = +++)”. With “326 (FLPEALDFV; listed as Homo sapiens) [compound 326]” the “Peptide exchange” value was ““+++” (≥50 = +++)”. For “400 (SLLTEQDLWTV; listed as Homo sapiens) [compound 400]”, the “Peptide exchange” value was ““++” (≥20% = ++)”. “349 (SLTEYLQNV; listed as Homo sapiens) [compound 349]” was tested, and the “Peptide exchange” value was ““++++” (≥75% = ++++)”. With “284 (ILLSQTTGV; listed as Homo sapiens) [compound 284]” the “Peptide exchange” value was ““+++” (≥50 = +++)”. In the case of “210 (LLLNAVLTV; listed as Homo sapiens) [compound 210]”, the “Peptide exchange” value is reported as ““++” (≥20% = ++)”. For “73 (NIFDLQIYV; listed as Homo sapiens) [compound 73]”, the “Peptide exchange” value was ““+++” (≥50 = +++)”. “195 (GLFADLLPRL; listed as Homo sapiens) [compound 195]” was tested, and the “Peptide exchange” value was ““+++” (≥50 = +++)”. “238 (YLISFQTHI; listed as Homo sapiens) [compound 238]” was tested, and the “Peptide exchange” value was ““+++” (≥50 = +++)”. With “277 (LLPPLESLATV; listed as Homo sapiens) [compound 277]” the “Peptide exchange” value was ““++” (≥20% = ++)”. “461 (VMFRTPLASV; listed as Homo sapiens) [compound 461]” was tested, and the “Peptide exchange” value was ““++” (≥20% = ++)”. With “567 (SLLPLDDIVRV; listed as Homo sapiens) [compound 567]” the “Peptide exchange” value was ““+++” (≥50 = +++)”. With “53 (KMIETDILQKV; listed as Homo sapiens) [compound 53]” the “Peptide exchange” value was ““++++” (≥75% = ++++)”. In the case of “381 (FIDEAYVEV; listed as Homo sapiens) [compound 381]”, the “Peptide exchange” value is reported as ““++” (≥20% = ++)”. With “276 (ALFTFSPLTV; listed as Homo sapiens) [compound 276]” the “Peptide exchange” value was ““+++” (≥50 = +++)”. In the case of “431 (SLVNVVPKL; listed as Homo sapiens) [compound 431]”, the “Peptide exchange” value is reported as ““++” (≥20% = ++)”. With “617 (ALMYESEKVGV; listed as Homo sapiens) [compound 617]” the “Peptide exchange” value was ““+++” (≥50 = +++)”. In the case of “170 (RLQETLSAA; listed as Homo sapiens) [compound 170]”, the “Peptide exchange” value is reported as ““+++” (≥50 = +++)”. For “106 (LLYDAVHIVSV; listed as Homo sapiens) [compound 106]”, the “Peptide exchange” value was ““+++” (≥50 = +++)”. “609 (ALWKQLLEL; listed as Homo sapiens) [compound 609]” was tested, and the “Peptide exchange” value was ““+++” (≥50 = +++)”. In the case of “452 (ILLEHGADPNL; listed as Homo sapiens) [compound 452]”, the “Peptide exchange” value is reported as ““+++” (≥50 = +++)”. For “211 (LLWPGAALL; listed as Homo sapiens) [compound 211]”, the “Peptide exchange” value was ““++” (≥20% = ++)”. For “320 (KMFEFVEPLL; listed as Homo sapiens) [compound 320]”, the “Peptide exchange” value was ““++++” (≥75% = ++++)”. With “498 (KLWTGGLDNTV; listed as Homo sapiens) [compound 498]” the “Peptide exchange” value was ““+++” (≥50 = +++)”. In the case of “7 (SLVGLLLYL; listed as Homo sapiens) [compound 7]”, the “Peptide exchange” value is reported as ““++++” (≥75% = ++++)”. For “346 (LLDSKVPSV; listed as Homo sapiens) [compound 346]”, the “Peptide exchange” value was ““+++” (≥50 = +++)”. “159 (GLVGNPLPSV; listed as Homo sapiens) [compound 159]” was tested, and the “Peptide exchange” value was ““++++” (≥75% = ++++)”. In the case of “594 (IMLKGDNITL; listed as Homo sapiens) [compound 594]”, the “Peptide exchange” value is reported as ““+++” (≥50 = +++)”. “380 (TLIEDEIATI; listed as Homo sapiens) [compound 380]” was tested, and the “Peptide exchange” value was ““++” (≥20% = ++)”. In the case of “75 (GLLEVMVNL; listed as Homo sapiens) [compound 75]”, the “Peptide exchange” value is reported as ““+++” (≥50 = +++)”. With “348 (ILLDVKTRL; listed as Homo sapiens) [compound 348]” the “Peptide exchange” value was ““++++” (≥75% = ++++)”. For “287 (FLNEFFLNV; listed as Homo sapiens) [compound 287]”, the “Peptide exchange” value was ““+++” (≥50 = +++)”. “285 (QLLHVGVTV; listed as Homo sapiens) [compound 285]” was tested, and the “Peptide exchange” value was ““+++” (≥50 = +++)”. With “396 (ALLPDLPAL; listed as Homo sapiens) [compound 396]” the “Peptide exchange” value was ““+++” (≥50 = +++)”. “25 (FLPDEPYIKV; listed as Homo sapiens) [compound 25]” was tested, and the “Peptide exchange” value was ““+++” (≥50 = +++)”. With “519 (GLLHLTLLL; listed as Homo sapiens) [compound 519]” the “Peptide exchange” value was ““+++” (≥50 = +++)”. For “191 (LLQEGQALEYV; listed as Homo sapiens) [compound 191]”, the “Peptide exchange” value was ““++” (≥20% = ++)”. For “442 (GLLGGGGVLGV; listed as Homo sapiens) [compound 442]”, the “Peptide exchange” value was ““+++” (≥50 = +++)”. “559 (VTVPPGPSL; listed as Homo sapiens) [compound 559]” was tested, and the “Peptide exchange” value was ““++” (≥20% = ++)”. With “166 (YLNHLEPPV; listed as Homo sapiens) [compound 166]” the “Peptide exchange” value was ““+++” (≥50 = +++)”.
